Laboratory results published in article PMC2722380.

Target: His-tagged p55 fusion protein (recombinant full length human erythrocyte p55), expressed in E. coli (human) (UniProt Q00013)
Assay: SPR

Chain of His-tagged p55 fusion protein (recombinant full length human erythrocyte p55), expressed in E. coli (human) (Q00013 whole entry, the tested form may be a part): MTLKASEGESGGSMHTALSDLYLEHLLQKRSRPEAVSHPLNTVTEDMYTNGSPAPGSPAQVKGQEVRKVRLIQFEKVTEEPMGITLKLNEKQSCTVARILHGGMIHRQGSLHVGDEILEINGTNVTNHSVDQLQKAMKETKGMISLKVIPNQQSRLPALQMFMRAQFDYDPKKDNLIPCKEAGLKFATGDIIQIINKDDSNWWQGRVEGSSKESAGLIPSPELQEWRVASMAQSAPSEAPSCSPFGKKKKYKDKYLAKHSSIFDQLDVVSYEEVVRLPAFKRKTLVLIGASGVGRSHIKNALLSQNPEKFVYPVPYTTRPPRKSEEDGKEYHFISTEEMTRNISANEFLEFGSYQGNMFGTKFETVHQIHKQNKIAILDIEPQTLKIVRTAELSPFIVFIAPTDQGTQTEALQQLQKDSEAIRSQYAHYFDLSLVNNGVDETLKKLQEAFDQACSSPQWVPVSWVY

| Substance | Kd | koff | kon |
| --- | --- | --- | --- |
| MBP fusion of the exon 5-encoded peptide of protein 4.1R (domain or fragment) | 0.015 µM | 0.0024 s⁻¹ | 160000 M⁻¹ s⁻¹ |
| MBP fusion of the exon 10-encoded peptide of protein 4.1R (domain or fragment) | 0.03 µM | 0.0018 s⁻¹ |  |
| MBP-FERMΔExon 5 fusion protein of human protein 4.1R (lacks exon 5, contains exon 10) (domain or fragment) | 0.132 µM | 0.0029 s⁻¹ | 22000 M⁻¹ s⁻¹ |
